7 proteins from US20160024487 can be followed below.

In the data set the target is human α-thrombin (FIIa), P00734.

B1: FX [191-194]>[NATLMPR]-HPC4 (protein)
chain: ANSFLEEMKKGHLERECMEETCSYEEAREVFEDSDKTNEFWNKYKDGDQCETSPCQNQGKCKDGLGEYTCTCLEGFEGKNCELFTRKLCSLDNGDCDQFCHEEQNSVVCSCARGYTLADNGKACIPTGPYPCGKQTLERRKRSVAQATSSSGEAPDSITWKPYDAADLDPTENPFDLLDFNQTQPERGDNNATLMPRIVGGQECKDGECPWQALLINEENEGFCGGTILSEFYILTAAHCLYQAKRFKVRVGDRNTEQEEGGEAVHEVEVVIKHNRFTKETYDFDIAVLRLKTPITFRMNVAPACLPERDWAESTLMTQKTGIVSGFGRTHEKGRQSTRLKMLEVPYVDRNSCKLSSSFIITQNMFCAGYDTKQEDACQGDSGGPHVTRFKDTYFVTGIVSWGEGCARKGKYGIYTKVTAFLKWIDRSMKTRGLPKAKSHAPEVITSSPLKDQVDPRLIDGK
B1: the kcat/KM entry is “No Activity”.

B2: FX [191-194]>[NATIRPR]-HPC4 (protein)
chain: ANSFLEEMKKGHLERECMEETCSYEEAREVFEDSDKTNEFWNKYKDGDQCETSPCQNQGKCKDGLGEYTCTCLEGFEGKNCELFTRKLCSLDNGDCDQFCHEEQNSVVCSCARGYTLADNGKACIPTGPYPCGKQTLERRKRSVAQATSSSGEAPDSITWKPYDAADLDPTENPFDLLDFNQTQPERGDNNATIRPRIVGGQECKDGECPWQALLINEENEGFCGGTILSEFYILTAAHCLYQAKRFKVRVGDRNTEQEEGGEAVHEVEVVIKHNRFTKETYDFDIAVLRLKTPITFRMNVAPACLPERDWAESTLMTQKTGIVSGFGRTHEKGRQSTRLKMLEVPYVDRNSCKLSSSFIITQNMFCAGYDTKQEDACQGDSGGPHVTRFKDTYFVTGIVSWGEGCARKGKYGIYTKVTAFLKWIDRSMKTRGLPKAKSHAPEVITSSPLKDQVDPRLIDGK
Regarding B2, the kcat/KM result is listed as “No Activity”.

B3: FX [191-194]>[NATLEPR]-HPC4 (protein)
chain: ANSFLEEMKKGHLERECMEETCSYEEAREVFEDSDKTNEFWNKYKDGDQCETSPCQNQGKCKDGLGEYTCTCLEGFEGKNCELFTRKLCSLDNGDCDQFCHEEQNSVVCSCARGYTLADNGKACIPTGPYPCGKQTLERRKRSVAQATSSSGEAPDSITWKPYDAADLDPTENPFDLLDFNQTQPERGDNNATLEPRIVGGQECKDGECPWQALLINEENEGFCGGTILSEFYILTAAHCLYQAKRFKVRVGDRNTEQEEGGEAVHEVEVVIKHNRFTKETYDFDIAVLRLKTPITFRMNVAPACLPERDWAESTLMTQKTGIVSGFGRTHEKGRQSTRLKMLEVPYVDRNSCKLSSSFIITQNMFCAGYDTKQEDACQGDSGGPHVTRFKDTYFVTGIVSWGEGCARKGKYGIYTKVTAFLKWIDRSMKTRGLPKAKSHAPEVITSSPLKDQVDPRLIDGK
As for B3, the kcat/KM entry is recorded as “No Activity”.

B4: FX [191-194]>[NATMMPR]-HPC4 (protein)
chain: ANSFLEEMKKGHLERECMEETCSYEEAREVFEDSDKTNEFWNKYKDGDQCETSPCQNQGKCKDGLGEYTCTCLEGFEGKNCELFTRKLCSLDNGDCDQFCHEEQNSVVCSCARGYTLADNGKACIPTGPYPCGKQTLERRKRSVAQATSSSGEAPDSITWKPYDAADLDPTENPFDLLDFNQTQPERGDNNATMMPRIVGGQECKDGECPWQALLINEENEGFCGGTILSEFYILTAAHCLYQAKRFKVRVGDRNTEQEEGGEAVHEVEVVIKHNRFTKETYDFDIAVLRLKTPITFRMNVAPACLPERDWAESTLMTQKTGIVSGFGRTHEKGRQSTRLKMLEVPYVDRNSCKLSSSFIITQNMFCAGYDTKQEDACQGDSGGPHVTRFKDTYFVTGIVSWGEGCARKGKYGIYTKVTAFLKWIDRSMKTRGLPKAKSHAPEVITSSPLKDQVDPRLIDGK
Turning to B4, the kcat/KM entry was “No Activity”.

B5: FX [191-194]>[NATLRPR]-HPC4 (protein)
chain: ANSFLEEMKKGHLERECMEETCSYEEAREVFEDSDKTNEFWNKYKDGDQCETSPCQNQGKCKDGLGEYTCTCLEGFEGKNCELFTRKLCSLDNGDCDQFCHEEQNSVVCSCARGYTLADNGKACIPTGPYPCGKQTLERRKRSVAQATSSSGEAPDSITWKPYDAADLDPTENPFDLLDFNQTQPERGDNNATLRPRIVGGQECKDGECPWQALLINEENEGFCGGTILSEFYILTAAHCLYQAKRFKVRVGDRNTEQEEGGEAVHEVEVVIKHNRFTKETYDFDIAVLRLKTPITFRMNVAPACLPERDWAESTLMTQKTGIVSGFGRTHEKGRQSTRLKMLEVPYVDRNSCKLSSSFIITQNMFCAGYDTKQEDACQGDSGGPHVTRFKDTYFVTGIVSWGEGCARKGKYGIYTKVTAFLKWIDRSMKTRGLPKAKSHAPEVITSSPLKDQVDPRLIDGK
As for B5, the kcat/KM result is given as “No Activity”.

B6: FX [191-194]>[NATDTPR]-HPC4 (protein)
chain: ANSFLEEMKKGHLERECMEETCSYEEAREVFEDSDKTNEFWNKYKDGDQCETSPCQNQGKCKDGLGEYTCTCLEGFEGKNCELFTRKLCSLDNGDCDQFCHEEQNSVVCSCARGYTLADNGKACIPTGPYPCGKQTLERRKRSVAQATSSSGEAPDSITWKPYDAADLDPTENPFDLLDFNQTQPERGDNNATDTPRIVGGQECKDGECPWQALLINEENEGFCGGTILSEFYILTAAHCLYQAKRFKVRVGDRNTEQEEGGEAVHEVEVVIKHNRFTKETYDFDIAVLRLKTPITFRMNVAPACLPERDWAESTLMTQKTGIVSGFGRTHEKGRQSTRLKMLEVPYVDRNSCKLSSSFIITQNMFCAGYDTKQEDACQGDSGGPHVTRFKDTYFVTGIVSWGEGCARKGKYGIYTKVTAFLKWIDRSMKTRGLPKAKSHAPEVITSSPLKDQVDPRLIDGK
B6: the kcat/KM result is “No Activity”.

B7: FX [191-194]>[NATIKPR]-HPC4 (protein)
chain: ANSFLEEMKKGHLERECMEETCSYEEAREVFEDSDKTNEFWNKYKDGDQCETSPCQNQGKCKDGLGEYTCTCLEGFEGKNCELFTRKLCSLDNGDCDQFCHEEQNSVVCSCARGYTLADNGKACIPTGPYPCGKQTLERRKRSVAQATSSSGEAPDSITWKPYDAADLDPTENPFDLLDFNQTQPERGDNNATIKPRIVGGQECKDGECPWQALLINEENEGFCGGTILSEFYILTAAHCLYQAKRFKVRVGDRNTEQEEGGEAVHEVEVVIKHNRFTKETYDFDIAVLRLKTPITFRMNVAPACLPERDWAESTLMTQKTGIVSGFGRTHEKGRQSTRLKMLEVPYVDRNSCKLSSSFIITQNMFCAGYDTKQEDACQGDSGGPHVTRFKDTYFVTGIVSWGEGCARKGKYGIYTKVTAFLKWIDRSMKTRGLPKAKSHAPEVITSSPLKDQVDPRLIDGK
Consider B7, for which the kcat/KM result is given as “No Activity”.
